Reference: a protein production outcome set (Wang et al. 2014)

Experiment: label from the status in PepcDB records
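Further: failed if final PepcDB status was selected cloned or expressed and not failed if soluble or beyond.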

| Sequence | protein production |
| --- | --- |
| MNGRRTIGEDGLVFGLVVIVALVAAVVVGTVLGHRYRVGPPVLLILSGSLLGLIPRFGDVQIDGEVVLLLFLPAILYWESMNTSFREIRWNLRVIVMFSIGLVIATAVAVSWTARALGMESHAAAVLGAVLSPTDAAAVAGLAKRLPRRALTVLRGESLINDGTALVLFAVTVAVAEGAAGIGPAALVGRFVVSYLGGIMAGLLVGGLVTLLRRRIDAPLEEGALSLLTPFAAFLLAQSLKCSGVVAVLVSALVLTYVGPTVIRARSRLQAHAFWDIATFLINGSLWVFVGVQIPGAIDHIAGEDGGLPRATVLALAVTGVVIATRIAWVQATTVLGHTVDRVLKKPTRHVGFRQRCVTSWAGFRGAVSLAAALAVPMTTNSGAPFPDRNLIIFVVSVVILVTVLVQGTSLPTVVRWARMPEDVAHANELQLARTRSAQAALDALPTVADELGVAPDLVKHLEKEYEERAVLVMADGADSATSDLAERNDLVRRVRLGVLQHQRQAVTTLRNQNLIDDIVLRELQAAMDLEEVQLLDPADAE | failed |
| MNYKLTLHPGSNPVEEFTSIPHGVTSLDLSLNNLYSISTVELIQAFANTPASVTSLNLSGNSLGFKNSDELVQILAAIPANVTSLNLSGNFLSYKSSDELVKTLAAIPFTITVLDLGWNDFSSKSSSEFKQAFSNLPASITSLNLRGNDLGIKSSDELIQILAAIPANVNSLNLRGNNLASKNCAELAKFLASIPASVTSLDLSANLLGLKSYAELAYIFSSIPNHVVSLNLCLNCLHGPSLENLKLLKDSLKHLQTVYLDYDIVKNMSKEQCKALGAAFPNIQKIILVDKNGKEIHPSHSIPISNLIRELSGKADVPSLLNQCLIFAQKHQTNIEDLNIPDELRESIQTCKPLLEHHHHHH | not failed |
| MESAPSRLDGDRPRLSVRLLGPLEILRDGVPLALPASRKLRALLAYLALAPHAVGRGRLCELLWDVPNDPRGELRWCLSKLRAALDTPDRRRVTTQGDAVALDLDGCLVDALEISQAAAQGIATLDVERLQGLAGLFAGDLLDGLELERSPHFDSWLVAQRRRFDAYHAAVLEQLAASLPADCDETVSRLDRWIELAPFDTRAHAALLASLARRGEIGAAEQHLASAERLFQSEDLDFAPLRQAWRSIRDQRASHQAQPAGLPTPSHLVAASGDTGPVEPSHASLAVMPFVDESGARGGLADGFTHDIITRLAKLRDFFVIARGSVFALAEKAIAPEEAGRKLGVDYVASGTVRSLTGRLIVSVELVEVRTARIVWAETFERRPHDLFAVLDDIGDSIVSSISAEIETVERNRAMLKAPNSLNAWEAYHRGLWHMYRFTQAENEQARHFFDKALQLDPTFARAYAGLSFTHWQNAFQRWGDRDRESALAYESAGHSLLVDDHNPAAHWAMGRALWLRGEQDGSLAELERAVDLSPNFALGHYALSFVHSQSGDPQAAIGSSDHSRHLSPFDPLLFGMLGSRAMSHVRLGQFEEAAEWALKAAARPNAHTIILAIAAHCLALAGRLDEARGFAAAIRKTLPDYRADDFIGTFRFDPDAEALFRQGARRIGFS | failed |
| MEGALAANWSAEAANASAAPPGAEGNRTAGPPRRNEALARVEVAVLCLILLLALSGNACVLLALRTTRQKHSRLFFFMKHLSIADLVVAVFQVLPQLLWDITFRFYGPDLLCRLVKYLQVVGMFASTYLLLLMSLDRCLAICQPLRSLRRRTDRLAVLATWLGCLVASAPQVHIFSLREVADGVFDCWAVFIQPWGPKAYITWITLAVYIVPVIVLATCYGLISFKIWQNLRLKTAAAAAAEAPEGAAAGDGGRVALARVSSVKLISKAKIRTVKMTFIIVLAFIVCWTPFFFVQMWSVWDANAPKEASAFIIVMLLASLNSCCNPWIYMLFTGHLFHELVQRFLCCSASYLKGRRLGETSASKKSNSSSFVLSHRSSSQRSCSQPSTA | not failed |
| MEDETLGFFKKTSSSHARLNVPALVQVAALAIIMIRGLDVLMIFNTLGVRGIGEFIHRSVQTWSLTLVFLSSLVLVFIEIWCAFSLVKGRRWARWLYLLTQITAASYLWAASLGYGYPELFSIPGESKREIFHSLMLQKLPDMLILMLLFVPSTSRRFFQLQ | failed |
| MRTATSTSPATGTPAPVPSRTPDVTVTVIVYNDAGRLPRAVASALRQSHANIEVVISDDHSTDATEEVARELAAHDPRVVYLRLPENSGGCSAPRNRALEIARAPYLMFLDSDDELPERAVEVLLAAHRERDLDFAMGAVHRIREDGGRRTTWMPHLVAERRTLDGIEADPRLLFEHLSTSKMYARAFLDRHGLRFPEGIHYEDQLFSAQAYCLAKTFTVVPEPVYRWYIAPYADADSASISNQRHKLTNVRDRVHVQRLIDAFLAESGHEALREDKDFKFLKHDFRMYAGDLPYRDDTWLASFADLMNPYLDTLAEGAYARLPRAERVVLRLLRDRRLSDVRTAARGLGHDVAPRRVTPDEQSGRVYWGEEVPASPESRRELDLTDLDLDTRPFFTALLRHEITEITRGPGASVDLTVRTYDPALRLPVGPQRAVLHLSPGPRRLTVPFRLSPVRPGLFEGRVRLDLAAARLPLHGFAGTRHPVLRLRHRGRTHTGILLAPLAFPPLTARVPYRTGLTPHRVTLRPEGHNPGRLQITWQPVGTTAKILGPAARRLSTPRTRRAARLLSNILRLEHHHHHH | not failed |
| MKESSTLLQNLARSLPRLNMGILLGLALLLFATLYWTLERLFDEQNSNVRLHFAQLMENIQEQELFLKRLAARHSIDALSLDAPHHLNLQAFPPTAGQQSPFATPFSLSLSPQQPAAGELPRVFALGLQLSSFYSAFWSGSQHVAPRTFVFKTFGHFDISHPEGNTAPDIGVADQVLHQQLVKSDGFADHQIHWQQYRPPASEALPTRFLAYINLHEPAPPLDVQGGNDWSVVASLLSLDDLNHLEHTRHWSIYDDFTLIEPSGTALTGDPAPADVLGEGLNFGLQGMIVKVTSQTPQLWTGLYAISYRNYLDYALWAMLSLLALGVGSIACGWAASRWYRNKVVVPAQRAQQCLNESEDFNRVVIDTVPSGLCVVSRDNLQVILQNRQAEQWQGTAQLLSRLAQDRSLIDGGETSLDIDGRYLQVEFVSTRYQRQDVLVCTFNDVTRHVEDARALDRARRSADAANAAKTLFLATMSHEIRTPLYGVLGTLELLGLTRLDSRQSDYLQTIQRSSSTLFQLISDVLDVSRIEAGQMSIDPLEFCPLDMLEDVLHAHAASAQRRGLLFYACIDPNLPDLLLGDAARISQILNNLLSNAIKFTESGRVVLRVRLLELRDQQARIEWQVTDTGIGISAQQQPQLFVPFFQVRDASNEAGAGLGLAICERLCQMMGGQMQVTSEPGLGSSFSLRLTLRCLPGGLPPLLPWPEGSPVYVRAPVPELLKNTCDWLGRLGVPAHPPPPGWSDEPQTGVLIDMLPRDGLASWPGPCVSAVSGGGSGRLPQATSWQVDAHDIRAIAQAAVLAHQGLPLYQAQHRAGRMGQLNLRILVAKHSPINQAIIKEQLQALGCQVTLSANGKQALEHWQPQRFDIVITDVNMPLMNGYELARELRRRDPQLPIIGVTANALREEGIRCLAAGMNTWIVKPMNLQTLRGHLSKLCPTSTATAAPSIPPAAPSRPPPDTAQGDRIQVTEKMRPLFLSTMHEDLRRLAEALDSGAGKIAAARLHSIAGAMGAVQAAPLAKACAELECRLLEGALTADLQAQARQLMQRLSRLLLPLE | failed |
| MLEVHIPSVGPEAEGPRQSPEKSHMVFRVEVLCSGRRHTVPRRYSEFHALHKRIKKLYKVPDFPSKRLPNWRTRGLEQRRQGLEAYIQGILYLNQEVPKELLEFLRLRHFPTDPKASNWG | not failed |
| MSLNILVIGTGAIGSFYGALLAKTGHCVSVVARSDYETVKAKGIRIRSATLGDYTFRPAAVVRSAAELETKPDCTLLCIKVVEGADRVGLLRDAVAPDTGIVLISNGIDIEPEVAAAFPDNEVISGLAFIGVTRTAPGEIWHQAYGRLMLGNYPGGVSERVKTLAAAFEEAGIDGIATENITTARWQKCVWNAAFNPLSVLSGGLDTLDILSTQEGFVRAIMQEIRAVAAANGHPLPEDIVEKNVASTYKMPPYKTSMLVDFEAGQPMETEVILGNAVRAGRRTRVAIPHLESVYALMKLLELRTSKSLWGNEGHHHHHH | not failed |
| MRYCRRIGDGHITANSRRMFMVEPAGRKPDPQRRTPHPSVAPADAPWPAHSPVDPAVRRFRGAARYAIWRRGAEWTAVADGPQWSAALAPRIWALRQRQWPVLAVSAPMLVVAGAVALAGVQGWSPVAWTALLVAEVLLRVWVARQAGPWRTAALQRTGWQLVTRLRAISVADAVTTAQIRAGRPQR | failed |
| ELQAGFDKQEYMETLKINYKVHIALDKWAANTSVADPQDFDFVYRSPVVAFDNIWDLWKHKNKSVALISVQGSIQTEASFLANLYAAMIPAKGELQLDKDFKFTYQLADNPHAAVHVGWFVAMAYLSKTVVSKIDSCYNAGIKDFILTGHSQGGGITFLLNSYLENLKMQGRLPADIRFKTYCSAGPKPGNLFYAYEYEHMTAGGWAYNVVNTADWVPDVPFSVQTVTDFTAVNPFHGAKKAIRKQRFPANLALKHMYNKMSKPSERAQKNYQKYLGRMVSNAVKKQIPNFNAPEYYNSNYYVRTGNTIVLFPDEAYYKIYSNDPEDPNIWRHHLP | failed |
| MSDPYERVNGGRLAFKGGDLATRKSIEKKKKKKQKKNKEKLDGVEDGAKTAPDGSPPPAAAAGDEDIYSIDAAKKKKYDDLFPVEAKKFGYIPKANFESREDALDDRVKKKADRYCK | failed |
| ELTAQHVMTPRVRVSALQSSATAEDVVNLTRATGLSRFPVYRDRIDEIVGMVHLKDALAIPSRDRLRTPVGRIAQPPLLVPETLPVQPLLARLRSEQPIAVVVDEYGGTAGVVTLEDIVEELVGEVRDEHDGQDLPELAVAPPEDGRPAWDADGSCRVDILQRIGLDV | not failed |
| SDNLSSEEIQQRAHQITDESLESTRRILGLAIESQDAGIKTITMLDEQKEQLNRIEEGLDQINKDMRETEKTLTELNKCCGLCVCPCNRTKNFESGKAYKTTWGDGGENSPCNVVSKQPGPVTNGQLQQPTTGAASGGYIKRITNDAREDEMEENLTQVGSILGNLKDMALNIGNEIDAQNPQIKRITDKADTNRDRIDIANARAKKLIDS | not failed |
| MKVNTWFGVLELDSNGKTLSSEVFPKDIRELALRSLSLRESRQNLPPEGFDLKTAALECGFTESLSEYYSLLHKVTLETVKLQVSQALTPDQRIIQAVEALDDINETTNSLSERLFEWYGGYFPESGLSGEELAVFISRYGSRENLPPEDPHYLKAKNSMGAKLEAADEVLLKGLAESVCSLYERRKQIEAYIESSMEILAPNLALLAGPMLGARLISIAGSLEKLAAFPSSTIQVIGASKALFKHLRSRAPSPKHGIIYSHPLINTSPWWVRGKVARALAAKLSLAARIDFYSAKRNPSLENELEEKIRKIRAENPRPPQKRQEIRAKPKKKRRKLEHHHHHH | not failed |
| MSLSNIETVPASIEMKPNPTITVFERSPDGGRGLARDMPVRWALEEVGRPYHVRRLSFEAMKEASHLAYQPFGQIPSYEQGDLILFESGAIVMHIAQHHSGLLPEDQLRRARTVAWMFAALNTIEPSILNFTTVWLFERNEPWHEARLARTKEQLLKRLDELSAWLGDREWLEGSFSAADILMICVLRRLESSGILKDYGNLLAYVERGKARPAFKRAFDAQLAVFTAASKNEGHHHHHH | not failed |
| MEESATVEVVVGRVGRAHGLRGDVVVEVRTDEPDARFGVGATVQIEGSRRDLTVVRSRWAKGCLIVAFDEVKDRQGAEELRGSVLVVDVEPNDDPDDPDEFWDRRLRGLTVVDESGKSRGAVKDVLHMPAQDVLVIDVSGEEHLVPFVHQLVPTVDVASGRIVVSGIPGLLDSNAEEAR | failed |
